1 molecule from patent US20040005320A1 (ZymoGenetics, published 2004) can be followed below.

In one experiment the target is T1, IL-20RA (human, UniProt Q9UHF4 30-553).
T1 construct: Expressed alone on stably transfected BHK cells; also called Zcytor7; IL-20RA subunit alone
T1 sequence: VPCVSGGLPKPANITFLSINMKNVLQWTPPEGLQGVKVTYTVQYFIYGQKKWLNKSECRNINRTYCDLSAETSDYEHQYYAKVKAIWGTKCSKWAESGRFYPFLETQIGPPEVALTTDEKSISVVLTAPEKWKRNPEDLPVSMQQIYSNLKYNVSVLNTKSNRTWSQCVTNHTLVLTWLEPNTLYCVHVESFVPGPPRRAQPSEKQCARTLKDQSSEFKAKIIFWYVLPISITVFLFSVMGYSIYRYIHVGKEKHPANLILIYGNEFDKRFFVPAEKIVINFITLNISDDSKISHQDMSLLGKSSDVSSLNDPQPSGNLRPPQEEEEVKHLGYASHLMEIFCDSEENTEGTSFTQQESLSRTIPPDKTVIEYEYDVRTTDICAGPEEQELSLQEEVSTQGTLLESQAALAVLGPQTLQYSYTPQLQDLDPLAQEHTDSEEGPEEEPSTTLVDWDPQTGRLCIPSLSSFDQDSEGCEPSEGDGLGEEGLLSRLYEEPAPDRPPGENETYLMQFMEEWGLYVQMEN
The experiment is described as follows: radiolabeled ligand binding on stably transfected BHK cells. On the procedure:
(§1) The specificity and affinity of IL-20 for its receptor was determined using BHK cells stably transfected with IL-20RA, IL-20RB or both receptor subunits. […] Binding of ¹²⁵I-labeled IL-20 was eliminated in the presence of 100-fold excess of unlabeled IL-20 but not with 100-fold excess of the unrelated cytokine, IL-21.

For another experiment, the target named is T2, IL-20RB (human, UniProt Q6UXL0 30-311).
T2 construct: Expressed alone on stably transfected BHK cells; also called IL-20RB subunit alone
T2 sequence: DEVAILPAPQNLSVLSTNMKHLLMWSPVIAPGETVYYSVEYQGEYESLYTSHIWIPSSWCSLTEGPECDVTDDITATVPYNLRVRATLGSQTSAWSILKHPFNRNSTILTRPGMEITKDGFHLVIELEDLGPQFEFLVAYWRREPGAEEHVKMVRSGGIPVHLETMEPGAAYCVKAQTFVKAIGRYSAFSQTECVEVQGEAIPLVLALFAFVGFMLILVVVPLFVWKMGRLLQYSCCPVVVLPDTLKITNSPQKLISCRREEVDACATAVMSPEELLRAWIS
Described as above. On the procedure:
as §1

Experiment [1] has as its target T3, IL-20RA/IL-20RB heterodimeric receptor (human, UniProt Q9UHF4 30-553; Q6UXL0 30-311).
T3 construct: Both subunits were co-expressed on transfected COS, BHK or BaF3 cells, or were endogenous on human HaCaT keratinocytes; also called IL-20RB/IL-20RA heterodimer; IL-20 receptor
T3 sequence 1: T1 sequence
T3 sequence 2: T2 sequence
The experiment is described as follows: 125I-labeled IL-20 binding on BHK cells expressing IL-20RA and IL-20RB. The procedure:
as §1

Usually Kd stands for the equilibrium constant for the complex coming apart. High values mean weaker binding, low ones tighter binding.

B1: IL-20 (ligand, UniProt Q9NYY1 25-176, looked up)
chain: LKTLNLGSCVIATNLQEIRNGFSEIRGSVQAKDGNIDIRILRRTESLQDTKPANRCCLLRHLLRLYLDRVFKNYQTPDHYTLRKISSLANSFLTIKKDLRLCHAHMTCHCGEEAMKKYSQILSHFEKLEPQAAVVKALGELDILLQWMEETE
notes: also called biotin-labeled IL-20 protein; biotinylated IL-20
Regarding B1, the binding result with IL-20RA and in the experiment with IL-20RB was “no binding” each time. The Kd in experiment [1] was approximately 1.5 nM.
